Measured values published in publication PMC5072618.

Legend:
[1] = target: IFI16 (gamma-interferon-inducible protein 16) (human (endogenous in HMVEC-d, HFF, BJAB, BCBL-1)) (UniProt Q16666); test: co-IP; whole cell lysates of KSHV infected HMVEC-d cells electroporated with siBRCA1 (48 h); IP with anti-IFI16 antibody
[2] = target: IFI16 (gamma-interferon-inducible protein 16) (human (endogenous in HMVEC-d, HFF, BJAB, BCBL-1)) (UniProt Q16666); test: co-IP; whole cell lysates of KSHV infected HMVEC-d cells (4 h; 30 min, 4 and 24 h for the p300 blot); IP with anti-Ran, anti-IFI16, anti-STING or anti-ASC antibodies; cells untreated or electroporated with siC, sicGAS or siASC

UniProt Q16666, sequence (Q16666 whole entry): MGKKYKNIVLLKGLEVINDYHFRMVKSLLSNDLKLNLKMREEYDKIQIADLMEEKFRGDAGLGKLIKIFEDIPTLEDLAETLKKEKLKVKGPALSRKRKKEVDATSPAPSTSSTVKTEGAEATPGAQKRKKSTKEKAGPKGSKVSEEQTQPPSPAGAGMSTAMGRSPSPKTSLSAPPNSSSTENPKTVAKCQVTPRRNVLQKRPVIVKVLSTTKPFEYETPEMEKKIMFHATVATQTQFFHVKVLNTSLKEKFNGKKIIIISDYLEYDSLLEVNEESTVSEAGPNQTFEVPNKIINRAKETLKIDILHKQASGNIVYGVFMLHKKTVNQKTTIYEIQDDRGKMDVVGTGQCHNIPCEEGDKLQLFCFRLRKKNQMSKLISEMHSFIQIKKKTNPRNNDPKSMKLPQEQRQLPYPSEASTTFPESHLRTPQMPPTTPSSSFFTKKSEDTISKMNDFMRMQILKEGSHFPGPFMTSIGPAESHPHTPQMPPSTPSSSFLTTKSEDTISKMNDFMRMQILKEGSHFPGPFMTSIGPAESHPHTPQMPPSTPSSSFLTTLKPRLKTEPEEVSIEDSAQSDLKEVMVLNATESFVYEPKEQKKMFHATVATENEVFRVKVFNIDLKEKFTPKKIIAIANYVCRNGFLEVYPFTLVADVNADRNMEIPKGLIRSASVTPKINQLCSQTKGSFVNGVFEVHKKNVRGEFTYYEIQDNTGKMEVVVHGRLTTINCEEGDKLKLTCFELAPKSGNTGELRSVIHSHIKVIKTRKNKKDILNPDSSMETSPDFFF

reduction of the IFI16-H2B co-precipitate on BRCA1 knockdown [1]: 40%
reduction of the IFI16-H2B co-precipitate on cGAS knockdown [2]: 25%
Substance: histone H2B (from UniProt P62807 1-126) (natural protein)
